From the supplement of paper PMC11246515
± gives the standard deviation of the averaged measurements.

Test: total protein half-life in vivo (active degradation + dilution); higher = more stable protein
[1] = E. coli NCM3722 delta-clpP delta-lon delta-hslV, growth: N-lim chemostat, doubling time 6 h
[2] = E. coli NCM3722 delta-clpP, growth: N-lim chemostat, doubling time 6 h
[3] = E. coli NCM3722 delta-hslV, growth: N-lim chemostat, doubling time 6 h
[4] = E. coli NCM3722 delta-lon, growth: N-lim chemostat, doubling time 6 h
[5] = E. coli NCM3722 delta-smpB, growth: N-lim chemostat, doubling time 6 h
[6] = wild type E. coli NCM3722, growth: C-lim chemostat, doubling time 3 h
[7] = wild type E. coli NCM3722, growth: C-lim chemostat, doubling time 6 h
[8] = wild type E. coli NCM3722, growth: C-lim chemostat, doubling time 12 h
[9] = wild type E. coli NCM3722, growth: N-lim chemostat, doubling time 6 h
[10] = wild type E. coli NCM3722, growth: N-lim chemostat, doubling time 12 h
[11] = wild type E. coli NCM3722, growth: P-lim chemostat, doubling time 6 h
[12] = wild type E. coli NCM3722, growth: P-lim chemostat, doubling time 12 h

## MRLDKFIAQQLGVSRAIAGREIRGNRVTVDGEIVRNAAFKLLPEHDVAYDGNPLAQQHGPRYFMLNKPQGYVCSTDDPDHPTVLYFLDEPVAWKLHAAGRLDIDTTGLVLMTDDGQWSHRITSPRHHCEKTYLVTLESPVADDTAEQFAKGVQLHNEKDLTKPAVLEVITPTQVRLTISEGRYHQVKRMFAAVGNHVVELHRERIGGITLDADLAPGEYRPLTEEEIASVV [P0AA43]
[1]
  total protein half-life in vivo: 5.25 ± 0.067 h
[2]
  total protein half-life in vivo: 4.76 ± 0.54 h
[3]
  total protein half-life in vivo: 3.68 ± 0.064 h
[4]
  total protein half-life in vivo: 4.65 ± 0.39 h
[5]
  total protein half-life in vivo: 3.78 ± 0.066 h
[6]
  total protein half-life in vivo: 3 ± 0.1 h
[7]
  total protein half-life in vivo: 4.74 ± 0.18 h
[8]
  total protein half-life in vivo: 8.66 ± 0.55 h
[9]
  total protein half-life in vivo: 3.57 ± 0.14 h
[10]
  total protein half-life in vivo: 6.08 ± 0.51 h
[11]
  total protein half-life in vivo: 4 ± 0.33 h
[12]
  total protein half-life in vivo: 7.21 ± 0.22 h

## MRLFAQLSWYFRREWRRYLGAVALLVIIAMLQLVPPKVVGIVVDGVTEQHFTTGQILMWIATMVLIAVVVYLLRYVWRVLLFGASYQLAVELREDYYRQLSRQHPEFYLRHRTGDLMARATNDVDRVVFAAGEGVLTLVDSLVMGCAVLIMMSTQISWQLTLFSLLPMPVMAIMIKRNGDALHERFKLAQAAFSSLNDRTQESLTSIRMIKAFGLEDRQSALFAADAEDTGKKNMRVARIDARFDPTIYIAIGMANLLAIGGGSWMVVQGSLTLGQLTSFMMYLGLMIWPMLALAWMFNIVERGSAAYSRIRAMLAEAPVVNDGSEPVPEGRGELDVNIHQFTYPQTDHPALENVNFALKPGQMLGICGPTGSGKSTLLSLIQRHFDVSEGDIRFHDIPLTKLQLDSWRSRLAVVSQTPFLFSDTVANNIALGCPNATQQEIEHVARLASVHDDILRLPQGYDTEVGERGVMLSGGQKQRISIARALLVNAEILILDDALSAVDGRTEHQILHNLRQWGQGRTVIISAHRLSALTEASEIIVMQHGHIAQRGNHDVLAQQSGWYRDMYRYQQLEAALDDAPENREEAVDA
[1]
  total protein half-life in vivo: 6.33 ± 0.2 h
[2]
  total protein half-life in vivo: 6.624 ± 0.017 h
[3]
  total protein half-life in vivo: 5.58 ± 1.5 h
[4]
  total protein half-life in vivo: 4.42 ± 0.37 h
[5]
  total protein half-life in vivo: 4.26 ± 0.096 h
[7]
  total protein half-life in vivo: 4.99 ± 0.061 h
[8]
  total protein half-life in vivo: 11.1 ± 1.6 h
[9]
  total protein half-life in vivo: 4.77 ± 0.67 h
[10]
  total protein half-life in vivo: 7.121 ± 0.033 h
[11]
  total protein half-life in vivo: 6.08 ± 0.52 h
[12]
  total protein half-life in vivo: 11.6 ± 3.3 h

## MRLGTFHKKKRFYINKIKINFLSFLFRNKINNQITDPAQVKSCLIIHDNNKLGDLIVLSSIYRELYSKGVKITLLTNRKGGEFLSNNKNIFEFCIKESTGFLEMLTLCKHLRDLQFDIVLDPFETMPSFKHSLILSSLKDSYILGFDHWYKRYYSFYHPHDECLKEHMSTRAIEILKHIYGEGKFSTNYDLHLPVDVEDKIKEFIGDTRIVIINPLGAKKICRLTFEQIKVIYQEVKTHFENYRIIFTGLPQDLLTIPILEIETLPFDEFIYTVALTKYSDFVISVDTALVHIAAAYHKPTLAFYPNSRTPEYPSHLIWSPNHHKSIQIVSPTYTVKDIDTETLTNSVKRLSCIDKK
[1]
  total protein half-life in vivo: 5.5 ± 0.61 h
[2]
  total protein half-life in vivo: 6.56 ± 1.5 h
[3]
  total protein half-life in vivo: 5.9 ± 0.57 h
[5]
  total protein half-life in vivo: 5.44 ± 0.1 h
[6]
  total protein half-life in vivo: 2.96 ± 0.088 h
[8]
  total protein half-life in vivo: 11.5 ± 0.51 h
[9]
  total protein half-life in vivo: 5.67 ± 0.47 h
[10]
  total protein half-life in vivo: 12.8 ± 1.3 h
[11]
  total protein half-life in vivo: 5.23 ± 0.19 h
[12]
  total protein half-life in vivo: 12.2 ± 0.22 h

## MRLIITFLMAWCLSWGAYAATAPDSKQITQELEQAKAAKPAQPEVVEALQSALNALEERKGSLERIKQYQQVIDNYPKLSATLRAQLNNMRDEPRSVSPGMSTDALNQEILQVSSQLLDKSRQAQQEQERAREIADSLNQLPQQQTDARRQLNEIERRLGTLTGNTPLNQAQNFALQSDSARLKALVDELELAQLSANNRQELARLRSELAEKESQQLDAYLQALRNQLNSQRQLEAERALESTELLAENSADLPKDIVAQFKINRELSAALNQQAQRMDLVASQQRQAASQTLQVRQALNTLREQSQWLGSSNLLGEALRAQVARLPEMPKPQQLDTEMAQLRVQRLRYEDLLNKQPLLRQIHQADGQPLTAEQNRILEAQLRTQRELLNSLLQGGDTLLLELTKLKVSNGQLEDALKEVNEATHRYLFWTSDVRPMTIAWPLEIAQDLRRLISLDTFSQLGKASVMMLTSKETILPLFGALILVGCSIYSRRYFTRFLERSAAKVGKVTQDHFWLTLRTLFWSILVASPLPVLWMTLGYGLREAWPYPLAVAIGDGVTATVPLLWVVMICATFARPNGLFIAHFGWPRERVSRGMRYYLMSIGLIVPLIMALMMFDNLDDREFSGSLGRLCFILICGALAVVTLSLKKAGIPLYLNKEGSGDNITNHMLWNMMIGAPLVAILASAVGYLATAQALLARLETSVAIWFLLLVVYHVIRRWMLIQRRRLAFDRAKHRRAEMLAQRARGEEEAHHHSSPEGAIEVDESEVDLDAISAQSLRLVRSILMLIALLSVIVLWSEIHSAFGFLENISLWDVTSTVQGVESLEPITLGAVLIAILVFIITTQLVRNLPALLELAILQHLDLTPGTGYAITTITKYLLMLIGGLVGFSMIGIEWSKLQWLVAALGVGLGFGLQEIFANFISGLIILFEKPIRIGDTVTIRDLTGSVTKINTRATTISDWDRKEIIVPNKAFITEQFINWSLSDSVTRVVLTIPAPADANSEEVTEILLTAARRCSLVIDNPAPEVFLVDLQQGIQIFELRIYAAEMGHRMPLRHEIHQLILAGFHAHGIDMPFPPFQMRLESLNGKQTGRTLTSAGKGRQAGSL
[1]
  total protein half-life in vivo: 6.45 ± 0.14 h
[2]
  total protein half-life in vivo: 6.87 ± 1.2 h
[3]
  total protein half-life in vivo: 6.3 ± 0.62 h
[4]
  total protein half-life in vivo: 6.27 ± 0.29 h
[5]
  total protein half-life in vivo: 5.67 ± 0.52 h
[6]
  total protein half-life in vivo: 3.35 ± 0.12 h
[7]
  total protein half-life in vivo: 6.73 ± 0.79 h
[8]
  total protein half-life in vivo: 13.1 ± 1.4 h
[9]
  total protein half-life in vivo: 6.49 ± 0.46 h
[10]
  total protein half-life in vivo: 13.3 ± 2.1 h
[11]
  total protein half-life in vivo: 5.95 ± 0.7 h
[12]
  total protein half-life in vivo: 12.8 ± 0.24 h

## MRLTSKGRYAVTAMLDVALNSEAGPVPLADISERQGISLSYLEQLFSRLRKNGLVSSVRGPGGGYLLGKDASSIAVGEVISAVDESVDATRCQGKGGCQGGDKCLTHALWRDLSDRLTGFLNNITLGELVNNQEVLDVSGRQHTHDAPRTRTQDAIDVKLRA [P0AGK8]
[1]
  total protein half-life in vivo: 5.43 ± 0.76 h
[2]
  total protein half-life in vivo: 2.85 ± 0.1 h
[3]
  total protein half-life in vivo: 1.38 ± 0.36 h
[4]
  total protein half-life in vivo: 1.43 ± 0.34 h
[5]
  total protein half-life in vivo: 1.04 ± 0.058 h
[6]
  total protein half-life in vivo: 1.22 ± 0.076 h
[7]
  total protein half-life in vivo: 1.76 ± 0.058 h
[8]
  total protein half-life in vivo: 2.04 ± 0.57 h
[9]
  total protein half-life in vivo: 1.057 ± 0.0037 h
[10]
  total protein half-life in vivo: 1.37 ± 0.1 h
[11]
  total protein half-life in vivo: 1.53 ± 0.5 h
[12]
  total protein half-life in vivo: 2.18 ± 0.6 h

## MRMNMSDFATFFAVARNQSFRAAGDELGLSSSAISHSIKTLEQRLKIRLFNRTTRSVSLTEAGSNLYERLRPAFDEIQIMLDEMNDFRLTPTGTLKINAARVAARIFLMSLLVGFTREYPDIKVELTTDDSLVDIVQQGFDAGVRLSCIVEKDMISVAIGPPVKLCVAATPEYFARYGKPRHPHDLLNHQCVVFRYPSGKPFHWQFAKELEIAVAGNIILDDVDAELEAVLMGAGIGYLLYEQIKEYLDTGRLECVLEDWSTERPGFQIYYPNRQYMSCGLRAFLDYVKTGQICQSQRHRPQ
[1]
  total protein half-life in vivo: 5.54 ± 0.06 h

## MRQKETTATTRFSLLPGSITRFFLLLIIVLLVTMGVMVQSAVNAWLKDKSYQIVDITHAIQKRVDNWRYVTWQIYDNIAATTSPSSGEGLQETRLKQDVYYLEKPRRKTEALIFGSHDNSTLEMTQRMSTYLDTLWGAENVPWSMYYLNGQDNSLVLISTLPLKDLTSGFKESTVSDIVDSRRAEMLQQANALDERESFSNMRRLAWQNGHYFTLRTTFNQPGHLATVVAFDLPINDLIPPGMPLDSFRLEPDATATGNNDNEKEGTDSVSIHFNSTKIEISSALNSTDMRLVWQVPYGTLLLDTLQNILLPLLLNIGLLALALFGYTTFRHFSSRSTENVPSTAVNNELRILRAINEEIVSLLPLGLLVHDQESNRTVISNKIADHLLPHLNLQNITTMAEQHQGIIQATINNELYEIRMFRSQVAPRTQIFIIRDQDREVLVNKKLKQAQRLYEKNQQGRMIFMKNIGDALKEPAQSLAESAAKLNAPESKQLANQADVLVRLVDEIQLANMLADDSWKSETVLFSVQDLIDEVVPSVLPAIKRKGLQLLINNHLKAHDMRRGDRDALRRILLLLMQYAVTSTQLGKITLEVDQDESSEDRLTFRILDTGEGVSIHEMDNLHFPFINQTQNDRYGKADPLAFWLSDQLARKLGGHLNIKTRDGLGTRYSVHIKMLAADPEVEEEEERLLDDVCVMVDVTSAEIRNIVTRQLENWGATCITPDERLISQDYDIFLTDNPSNLTASGLLLSDDESGVREIGPGQLCVNFNMSNAMQEAVLQLIEVQLAQEEVTESPLGGDENAQLHASGYYALFVDTVPDDVKRLYTEAATSDFAALAQTAHRLKGVFAMLNLVPGKQLCETLEHLIREKDVPGIEKYISDIDSYVKSLL
[1]
  total protein half-life in vivo: 6.226 ± 0.058 h
[3]
  total protein half-life in vivo: 6.72 ± 0.27 h
[4]
  total protein half-life in vivo: 6.86 ± 0.49 h
[5]
  total protein half-life in vivo: 6.32 ± 0.7 h
[6]
  total protein half-life in vivo: 3.25 ± 0.077 h
[7]
  total protein half-life in vivo: 6.3 ± 0.57 h
[8]
  total protein half-life in vivo: 11.13 ± 0.09 h
[9]
  total protein half-life in vivo: 6.21 ± 0.15 h
[10]
  total protein half-life in vivo: 12.6 ± 0.92 h
[11]
  total protein half-life in vivo: 7 ± 0.88 h
[12]
  total protein half-life in vivo: 12.9 ± 0.27 h
